Test [1] has as its target T1, 人白介素-33 (human interleukin-33) (human, UniProt O95760 112-270).
T1 sequence: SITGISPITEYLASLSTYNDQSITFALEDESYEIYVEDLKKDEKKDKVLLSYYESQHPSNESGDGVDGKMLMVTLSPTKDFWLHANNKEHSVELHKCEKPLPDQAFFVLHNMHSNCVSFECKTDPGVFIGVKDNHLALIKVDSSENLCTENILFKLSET
Briefly: cell-based or functional assay.

The target of test [2] is T1, 人白介素-33 (human interleukin-33). Nature of the test: SPR, Biacore T200, 25℃, antibody captured on Protein A chip, IL-33 as analyte, 1:1 model.
Test [3] deals with 天然人白介素-33 (natural human interleukin-33 from HFL-1 cell lysate) (human) (UniProt O95760). Nature of the test: cell-based or functional assay.
In test [4] the target is T2, 天然人白介素-33 (natural human interleukin-33 from HFL-1 cell lysate) (human, UniProt O95760 1-270, limits assumed).
T2 sequence (looked up): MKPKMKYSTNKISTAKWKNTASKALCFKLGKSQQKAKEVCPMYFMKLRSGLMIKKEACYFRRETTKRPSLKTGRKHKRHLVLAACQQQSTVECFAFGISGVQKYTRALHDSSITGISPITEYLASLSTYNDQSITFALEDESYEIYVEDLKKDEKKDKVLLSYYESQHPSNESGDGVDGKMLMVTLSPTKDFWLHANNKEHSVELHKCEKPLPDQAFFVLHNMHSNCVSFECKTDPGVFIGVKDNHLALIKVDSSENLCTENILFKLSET
Nature of the test: cell-based or functional assay.

One may read the Kd as the concentration at which binding is half-saturated. In general, koff refers to the rate constant with which the complex falls apart. Lower therefore signals slow dissociation. The term kon denotes a measure of how fast the partners come together. Higher therefore signals fast association. Regarding Etokimab/ANB020 (antibody), in test [1], the 中和人白介素-33诱导人全血释放IFN-γ, IC50 turned out to be 31.9 ng/mL; the 中和人白介素-33诱导的KU812细胞释放IL-5, IC50 was 44 ng/mL; the 抑制重组人白介素-33诱导HEK Blue IL-33细胞中NF-κB/AP-1信号转导 (SEAP reporter), IC50 was 6.05 ng/mL. In test [2], this molecule displayed a Kd of 0.869 nM, a dissociation rate constant (koff) of 0.000369 s⁻¹ and a kon of 424000 M⁻¹ s⁻¹. Besides, the 抑制天然人白介素-33诱导HEK Blue IL-33细胞中NF-κB/AP-1信号转导 (SEAP reporter), IC50 in test [3] is 2.5 ng/mL.

B1: QX007N(HZD78-70) (antibody, V domains shown)
VH: EVQLVESGGGLVQPGGSLRLSCAASGFSLSSYHMIWVRQAPGKGLEWVGVIYPNSNIYYATWAKGRFTISRDNSKNTLYLQMNSLRAEDTAVYYCARTIYVHVYSALSIWGQGTLVTVSS
VL: AFQMTQSPSSVSASVGDRVTITCQASESVLNEVSWYQQKPGKAPKLLIYFASKLASGVPSRFSGSGSGTDFTLTISSLQPEDFATYYCQQDWSMDNIDNAFGGGTKVEIKR
Regarding B1, in test [4], the “抑制天然人白介素-33诱导HEK Blue IL-33细胞中NF-κB/AP-1信号转导 (SEAP reporter), IC50” value stood at 3.91 ng/mL. In test [1], the “中和人白介素-33诱导人全血释放IFN-γ, IC50” value turned out to be 16 ng/mL; the “中和人白介素-33诱导的KU812细胞释放IL-5, IC50” value worked out at 5.87 ng/mL; the “抑制重组人白介素-33诱导HEK Blue IL-33细胞中NF-κB/AP-1信号转导 (SEAP reporter), IC50” value amounted to 6.67 ng/mL. For the same molecule, in test [2], the Kd was 1.23 nM, the koff stood at 0.000481 s⁻¹ and the on-rate (kon) was 392000 M⁻¹ s⁻¹.

(Values after patent publication CN113912728A (QYUNS THERAPEUTICS CO LTD, dated 2022).)
